{"source": "paper PMC4105210", "about": "(Nature communications, 2014)", "key": {"[1]": {"target": "T1, HSV-1 UL31, full length (residues 1-306) (HSV-1 strain F, UniProt P10215 1-306)", "T1 sequence": "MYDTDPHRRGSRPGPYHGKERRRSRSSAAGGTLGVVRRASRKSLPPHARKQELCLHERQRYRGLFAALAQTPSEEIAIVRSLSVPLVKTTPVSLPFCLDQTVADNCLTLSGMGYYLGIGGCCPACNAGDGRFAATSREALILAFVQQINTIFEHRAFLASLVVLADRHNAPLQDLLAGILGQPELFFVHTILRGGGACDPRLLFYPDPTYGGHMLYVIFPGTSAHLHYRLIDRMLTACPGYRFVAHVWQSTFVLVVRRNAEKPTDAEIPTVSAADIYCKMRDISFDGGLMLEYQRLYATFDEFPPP", "experiment": "SEC"}, "[2]": {"target": "T2, HSV-1 UL31Δ50 (residues 51-306) (HSV-1 strain F, UniProt P10215 51-306)", "T2 sequence": "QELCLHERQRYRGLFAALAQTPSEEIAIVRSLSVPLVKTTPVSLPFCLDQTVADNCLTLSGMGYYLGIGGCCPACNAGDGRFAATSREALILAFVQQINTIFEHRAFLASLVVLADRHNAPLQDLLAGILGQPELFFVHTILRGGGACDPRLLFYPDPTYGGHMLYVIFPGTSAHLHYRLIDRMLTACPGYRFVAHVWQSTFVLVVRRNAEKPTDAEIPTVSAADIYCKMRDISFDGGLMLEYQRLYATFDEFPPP", "experiment": "SEC"}, "[3]": {"target": "T1, HSV-1 UL31, full length (residues 1-306)", "experiment": "co-purification"}, "[4]": {"target": "the molecule itself", "experiment": "cryo-EM structure"}, "[5]": {"target": "the molecule itself", "experiment": "cross-linking"}}, "data": [{"binder": "HSV-1 UL34(1-185) (domain or fragment) MAGLGKPYTGHPGDAFEGLVQRIRLIVPSTLRGGDGEAGPYSPSSLPSRCAFQFHGHDGSDESFPIEYVLRLMNDWAEVPCNPYLRIQNTGVSVLFQGFFHRPHNAPGGAITPERTNVILGSTETTGLSLGDLDTIKGRLGLDARPMMASMWISCFVRMPRVQLAFRFMGPEDAGRTRRILCRAA", "values": [{"measurement": "binding result", "setting": "[1]", "value": "binds"}, {"measurement": "binding result", "setting": "[2]", "value": "binds"}]}, {"binder": "HSV-1 UL34(1-220) (domain or fragment) MAGLGKPYTGHPGDAFEGLVQRIRLIVPSTLRGGDGEAGPYSPSSLPSRCAFQFHGHDGSDESFPIEYVLRLMNDWAEVPCNPYLRIQNTGVSVLFQGFFHRPHNAPGGAITPERTNVILGSTETTGLSLGDLDTIKGRLGLDARPMMASMWISCFVRMPRVQLAFRFMGPEDAGRTRRILCRAAEQAITRRRRTRRSREAYGAEAGLGVAGTGFRARGD", "values": [{"measurement": "binding result", "setting": "[3]", "value": "binds"}, {"measurement": "binding result", "setting": "[2]", "value": "binds"}]}, {"binder": "HSV-1 nuclear egress complex NEC220 (UL31 1-306 with UL34 1-220) (complex) chain 1: MYDTDPHRRGSRPGPYHGKERRRSRSSAAGGTLGVVRRASRKSLPPHARKQELCLHERQRYRGLFAALAQTPSEEIAIVRSLSVPLVKTTPVSLPFCLDQTVADNCLTLSGMGYYLGIGGCCPACNAGDGRFAATSREALILAFVQQINTIFEHRAFLASLVVLADRHNAPLQDLLAGILGQPELFFVHTILRGGGACDPRLLFYPDPTYGGHMLYVIFPGTSAHLHYRLIDRMLTACPGYRFVAHVWQSTFVLVVRRNAEKPTDAEIPTVSAADIYCKMRDISFDGGLMLEYQRLYATFDEFPPP chain 2: MAGLGKPYTGHPGDAFEGLVQRIRLIVPSTLRGGDGEAGPYSPSSLPSRCAFQFHGHDGSDESFPIEYVLRLMNDWAEVPCNPYLRIQNTGVSVLFQGFFHRPHNAPGGAITPERTNVILGSTETTGLSLGDLDTIKGRLGLDARPMMASMWISCFVRMPRVQLAFRFMGPEDAGRTRRILCRAAEQAITRRRRTRRSREAYGAEAGLGVAGTGFRARGD", "values": [{"measurement": "stoichiometry N", "setting": "[4]", "value": 6}]}, {"binder": "HSV-1 nuclear egress complex NEC220-DN (UL31 1-306 with UL34 1-220 D35A/E37A) (complex) chain 1: MYDTDPHRRGSRPGPYHGKERRRSRSSAAGGTLGVVRRASRKSLPPHARKQELCLHERQRYRGLFAALAQTPSEEIAIVRSLSVPLVKTTPVSLPFCLDQTVADNCLTLSGMGYYLGIGGCCPACNAGDGRFAATSREALILAFVQQINTIFEHRAFLASLVVLADRHNAPLQDLLAGILGQPELFFVHTILRGGGACDPRLLFYPDPTYGGHMLYVIFPGTSAHLHYRLIDRMLTACPGYRFVAHVWQSTFVLVVRRNAEKPTDAEIPTVSAADIYCKMRDISFDGGLMLEYQRLYATFDEFPPP chain 2: MAGLGKPYTGHPGDAFEGLVQRIRLIVPSTLRGGAGAAGPYSPSSLPSRCAFQFHGHDGSDESFPIEYVLRLMNDWAEVPCNPYLRIQNTGVSVLFQGFFHRPHNAPGGAITPERTNVILGSTETTGLSLGDLDTIKGRLGLDARPMMASMWISCFVRMPRVQLAFRFMGPEDAGRTRRILCRAAEQAITRRRRTRRSREAYGAEAGLGVAGTGFRARGD", "values": [{"measurement": "binding result", "setting": "[5]", "value": "binds"}]}]}
